# Measured values published in the DeepSol protein solubility set.
# Assay: soluble on expression in E. coli; label from the status in PepcDB or PDB records
row,Sequence,soluble on expression in E. coli
1,MEKPDINVAEAWEQYWNKTLVNATPVLWDANVERAVVVDLPRFQSFFDTELPLIDFACGNGTQTKFLSQFFPRVIGFDVSKTALEMASKENTAANISYRLLDGLVPEQAAQIHSEIGDANIYMRTGFHHIPVEKRELLAQSLRTLLGKQGVMYLIELGTGCIEFFNSLLEKYGKLPYELSLVMEHGIRPGIFTTEDIELYFPDFEILSQGESLFQSIHKLPDGNYATPPAFWAVIKRHLEHHHHHH,soluble
2,MGSDKIHHHHHHEVDLYKGGSLREPAYLYPFDQENKNVTAEITIKTNSTINLELLDVYFAPLKYNKHLLIMLTQDDCKPSIYPRTWASINGKPLSGQYYYHYEQLKQDDLPPDIYYLGKTLGCTDGTGKEVRFSFTATLAADDNYMAEESIINLGYSKDNYRFYGRNGILWEDVIDIVNYGNSIAFHNVNTKEIHNIDSIQKHYLIGQDSIQKRLSGRKCKTLSEPDGNIDYTTAAINLDDIKTITAERGEKVYPFHNLTNLENHTLNRVFHDSPDDFKQVIEQERSIPTVDRCAINIGVHSTDAFWTDFLLWLNDTYGKDGEDCIWMPSQEEYYEYNYYRMHGKIEKSADGSTLKLIINLPSQEYFYYPSVTINLKGLKKEDIKSIESNSAVTGLSYGNYQDGVMLNIDCRRFLVEHATHFVEQYEKDKTNQSNKADALYFVNMLKESSKKAELLNRIK,not soluble
3,MHRPITAGHTTSRLILDQLKQISRTPSESSVQSALSQQASMSSPVLERSKSAPALLTAAQRTMLAQVGACNSHLTSDENMAINELRLHKPRLPKDTWFFTDPNKDPDDVVTYTLGKQLQAEGFVHITDVVATLGDAEVRSQRAEMAKGVFNKLGLHDVHVSRGRDYAMNSLQSKEHAKFLLEGHALRAGPGEIHRDSLQDMSRRLARAPHGVGIVVIAGMSDINALITTCPDMVRERVDDITIMGGVEPLKDADGFVQPDARAYNNATDMDAARSLYRKAQELGIPLRIVTKEAAYKTAVSPSFYEGIAGSGHPVGHYLRDVQKSALKGLWEGIQAGLLPGLDDSWFFRTFMPNAQIEAAQLDKNKESSFEDIWPKVTKLNLYDPLTLLASVPGAAKLLFKPKAIHTEGFGVVEQVGPDDVTHPEKAKLLMSALAKSALVQSTVAPD,not soluble
4,MGSDKIHHHHHHMFMKNLYIDPDITKASTISSEFYTSTEWFEITKEKIFSKTWQFCISTEELTTNRQLIPFTLLPGYLEEPLLFAKDELGTIRCLSNVCTHRGKILIEEPCVAHKIKCSYHGRRFNFCGELLHMPEFELTKDFPSNNDNLSQISTGILEPFLFASLSPVVPFHEVFAEIKERLFWLPMEKMRLDKEKCKDYVVKSHWALYCENYLEALHIPFVHPSLRKVIDCNTYTTELFRYCNLQLALASPDEVSFDLPKGAQDYGKQVAAYYFWIFPNTMLNFYPWGCSVNVVKPLSPELTQVSFLSFVLDESKFGKGAGGALDQVEQEDERVVESVQRGIKSRYYDIGRFSPTKEQGTHHFQRLLCEFLND,not soluble
5,MNNTYNEKTHTLIKQLLKKFSPKVPGFAYMASFDSGVTYKGAVGLASIEENLPITTKSVFNIASVSKQFTAFSILLLEQEGRLSLDDSIVKFVPSIGTYAEPVTLRHLIHHTGGLVDYMELAHAENIEFTDILTVEQSLKHLNGHQIARFPVGTKFEYSNTGYFLLSLVVEKVSGKSLRQFAKERIFDSLNMKDTTIVDCYPTTISIARGYSKNEQGAYMVYESPWEHTGDGAVHATVEDLVKWGENLTTGTVGGKELVKRMSEIGPEISPTRETIIANEDYAFGLRLAEGFNCRYLEHSGSWAGYRSYFMRFPKEYLTVVVLSNYDGFDSKKYANEIAGIILEK,not soluble
6,MSLDEGLLNKVKERGTLLVGLEGTYPPFSFQGDDGKLTGFEVEFAQQLAKHLGVEASLKPTKWDGMLASLDSKRIDVVINQVTISDERKKKYDFSTPYTISGIQALVKKGNEGTIKTADDLKGKKVGVGLGTNYEEWLRQNVQGVDVRTYDDDPTKYQDLRVGRIDAILVDRLAALDLVKKTNDTLAVTGEAFSRQESGVALRKGNEDLLKAVNDAIAEMQKDGTLQALSEKWFGADVTEGHHHHHH,soluble
7,MSLKKINFGIVGLGRLGRAHAENLAFKIPNANLLAVCSIDKSQVDEVQKAWNIPYGYTDFDEMLKNKELDAIFIASPSGFHCEQIEKALDAGFHVFSEKPLGLYLDDAVRAMKAVNSHPNQIFMLGFMRRYDKSYAYAKKKIEEGAIGKPVLVRCYGLDPAKALPSFLKFAKDSYSGGLFLDMAIHDIDLARWYLDSEADELWAIGGAYGHKEFDEINDAETGAAMVKFKNGTMALLVAGRNCAHGYHIETEIIGTEGTLRIGTTPDKNLVTVFDSRGVNKECAGGFLERFEDAYLAEVKEFVDCVLENRKPAVTVEDGVLSTIVGYACKESFETGELVKVNYEGYDKLIKEGHHHHHH,soluble
8,MTLTQEKRSYMEKLSDENGIISALAFDQRGALKRLMAQYQTQEPTIAQMEELKVLVAEELTPYASSMLLDPEYGLPAAKHLDKNAGLLLAYEKTGYDTTSTKRLPDCLVEWSAKRLKKQGADAVKFLLYYDVDGDEEVNQQKQAYIERIGSECKAEDIPFFLEILAYDETITDAASVEYAKVKPHKVLDAMKVFSDERFGIDVLKVEVPVNMKYVEGFGDGPIVHTQDQAANFFKQQDQATPLPYIYLSAGVSAKLFQDTLVFAKESGANFNGVLCGRATWAGSVKDYIEKGEAAARQWLRTEGFKNIDELNKVLKATATSWKER,soluble
9,MGREVAESCVDTMLMEMVAMYSGRFYANKPELAARRIEAIGYQVGHQLSERYTMERPRFSDHLEAIKFICKDFWSEVFKKQIDNLKTNHRGTFVLQDNKFRWLSRVSIDPSSENETQDPSTPGESKAAQAVSMYLYFPCGIIRGVLSNLGIPCAVSADISSLPTCSFVIRVKA,not soluble
10,GTKMEPMEYLVVDVPSEFQGAIIEKMGPRKGEMTSLQPMGETVRLEFVVPARGLIGLRGELLTETRGTAVMTHTFHDYAPYKGDIPGRKNGVLIAMELGETTAYALDALQPRGILFIGPGVEVYGGMI,not soluble
11,METPSSAKRVTRSQAISAINDSDSDFKVPFSSSNKTEDSSIDQRKEEDRSALIDITNDSPIVGLTMQTPPSGFMVKRKSSRIKITPGSGEALLRGQVKTLLHKVEEGTELIHSIKTRPFIHLVTSPMRLLAPTPANTPQFPNFSDDDVKIKIASPIVAGNLRTSQISEEKEDKRMKKMNVETNQAEFAGKHNRFLYNSEDDEIVEAKEVLHLKGIPTPRGKHFRFATQEE,soluble
12,MKHILIIGATGQIGSELTMELRRRYGNTNVVAGYIQGAEPKGELKESGPSAVVDVTNGEMIESVVKEYHIDTIYNLAALLSVVAESKPKLAWKIGIDGLWNVLEVAREQGCAVFTPSSIGSFGASTPHTQTPQDTIQRPRTMYGVTKVTTELLSDYYFNKYGVDTRAVRFPGIISNVTPPGGGTTDYAVDIYYSAVRGEKFVCPIKEGTLMDMMYMPDALNAAIMLMEADPTKLIHRNAFNIASMSFDPETIFHAIKKHVPAFEMIYDVDPLKQRIADSWPDSLDDTCAREEWGWKPAYDLESMTVDMLEKLREKLKK,not soluble
13,YTDKYDKINLQEILENKRLLESYMDCVLGKGKCTPEGKELKDHLQEALETGCEKCTEAQEKGAETSIDYLIKNELEIWKELTAHFDPDGKWRKKYEDRAKAKGIVIPE,soluble
14,PDQCKPPQVTCRSATCAQVNWEVPLSNGTDVTEYRLEWGGVEGSMQICYCGPGLSYEIKGLSPATTYYCRVQALSVVGAGPFSEVVACVTPPS,soluble
15,AHHHHHHGSAGIEVQILEKKEDSIKFVLKGVHVSFANALRRTILGEVPTFAVDEVEFYENDSALFDEIIAHRLAMIPLTTPVDRFELDALELDDYTVTLSLEAEGPGIVYSGDLKSDDPDVKPVNPNIPIVKLAEGQRLVFNAYAKLGRGKDHAKWQPGFVYYKYYTIVHISKSIPEWKELKKLAKKRGLPVEETEEEVLVTTIKPFYIPKDFEEYEGKEIWEEIVPNTYIFTVETNGELPVEEIVSIALKILMRKADRFISELQKLTS,soluble
16,MGSDKIHHHHHHMEQLQKRKIYDTTASNASTGILNGKSSNVLNWDDVRFSWAYPLYKNMLANFWTPFEINMSHDAKQFPTLTETEQEAFKKIIGLLAFLDSVQTDYSMRAAEYLTDSSLAALMSVLSFQEVVHNQSYSYVLSSLVPKATQDEIFEYWKHDDVLKERNEFIIDGYEKFVDNPTPKTFLESIVYDVILEGLNFYSGFAFFYNLARNQKMVSTSTMINYINRDEQLHVYLFTNIFKELLVEFPELNTEETKTFVKTTLMKAADLEKDWFRYIIGDKIPGINPEDMETYISFIANKRAVQLGMEKPYPEIKHNPMKWIRAYEDVNSGKSDFFEQKSRQYAKVSADNGFDEL,not soluble
17,TLTTPPLELSDAIEYILMPLKAVHFPVYEVALMLSIALRFVPTLMDETEKIMNAQRARGVDFGEGNIFQQMRAVVPLLIPLFVSSFNRAEDLATAMEARGYQGGEGRSKYRILKWHQRDTWATGCFAILTVALIFLRA,not soluble
18,MGSDKIHHHHHHMSLIERAADKLVKNDMNGFMPGSVSQHDSREGIGPDSLFSSDGVPGKKTGHGRIIKEEVGADRINKAADTKKTVKRIEVDLENLHRKGVVTLHHTKSEIAEQFRLIKRPLLANAFNPDSGVKNGNLIMVTSSLSGEGKSFCSLNLAMSIAMEMDHRVLLVDADVARPSIPATLGFSPEEPGLLDMLRDSQLSISDVMMKTNIKKLTLIPAGRRHTHATELLASQSMHSILVELAQRYHDRVVIFDSPPLLLTSEARVLASQMGQIVLVVEAERTTQQTVKEALQQIEACDVVNLIYNKARAHGSTEYYGYY,not soluble
19,MGSDKIHHHHHHMTKDQQNIERGSVINVEILNAAHGGQGIAKYDGRVIFVKGAFPGDRLSANITHVKKKFARATIASIEMPSPLRMQQRCLAAANGAGCCDFGEFDPEIEGRYKADLVLEQLERLGKVSQPPTCEVVSFGSPTQWRTRMRLGVDAQGRAGGFASQSREVVSGVPCSQGVMGLLDGIVGAEQNVLRFTPGSQVVVVCDDLGQRTVVETQPAPRGKRTESMVKVVEGTGKVSQVVDGVTFELPATGFWQSHKDAAQAYADTIREWFGSLIIRNTDSSLVAWDLYGGCGSFASAILSAVDNHGVVHCVESAPAAVSAGKRALSQLVEDQKIVFHTETVERAMNQLPAPTLVVLDPPRVGAGAETVRAIAQSGPQAAIHIGCDPATFARDIAEWSRNGFILEKLRVFDAFPGTHHCETIGLLTKKN,not soluble
20,MKVEIGKIVNTHGIKGEIKVKSNSDFTETRFQPGELVIIERKNKEPLEFTIASYRMHKGLHMLTFEGINNINDIEYLKGETIMQERDHEEIELGEHEFYYSDIIGCTVFDDDDTPIGRVTEIFETGANDVWVVKGDKEYLIPYIADVVKDIDVEGRRIQITPMEGLLDLEHHHHHH,soluble
21,MSDPKQKSDDLPEQVEQPEQGGGNDGQEEDVQMAEVSEQELERVRTLLHRDWMYSFTPERVRRYHLNRSDYLNEEIRHSQRAIRNALLGYKHASNSRKTCRTDLLDTTWILENLELVGRQLPRESSSQGNPNQESVQELHRQICQLFEDDALAVCERGHNQEVALDLASQVIATHMRTIREFQEEYFKVTGKKHELKKLEDNAYGVLLTPSPKRMPKNFQRRRSDGDDDDDGPGNWGNLNPVAPV,soluble
22,GGKFVQAWSQFPAGKWGVEPNPVSVVPTHGEVLNDGKVKEVPWVLELTPMPVSGTTVGKDGINPDEPMTLETVDRFAREIGFKGRYQLNLPKGEDGVWTLSQDSMSYDMISPFADRTVHIDQYSGKILADIRFDDYNPFGKFMAASIALHMGTLG,not soluble
23,VSQRPFRDRVLHLLALRPYRKAELLLRLQKDGLTQADKDALDGLLQQVANMSAKDGTCTLQDCMYKDVQKDWPGYSEGDQQLLKRVLVRKL,soluble
